The source of these data is US20210324028A1 (Pfizer, published 2021).

For orientation: Kd means a measure of binding affinity in units of concentration. Read a low Kd as tighter binding.

Sequences and labels used below:
T1: human IL-2Rβ (human, UniProt P14784 27-240, limits assumed)
T1 construct: also called hIL-2Rβ; IL-2 receptor beta
T1 sequence (looked up): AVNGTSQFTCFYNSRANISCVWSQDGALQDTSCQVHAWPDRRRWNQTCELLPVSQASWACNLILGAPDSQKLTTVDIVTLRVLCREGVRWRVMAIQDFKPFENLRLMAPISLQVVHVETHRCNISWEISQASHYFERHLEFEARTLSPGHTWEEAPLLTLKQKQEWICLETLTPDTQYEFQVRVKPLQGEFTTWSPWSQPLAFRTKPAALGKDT

B1: hIL-15 V49R/D30G (ligand)
chain: NWVNVISDLKKIEDLIQSMHIDATLYTESGVHPSCKVTAMKCFLLELQRISLESGDASIHDTVENLIILANNSLSSNGNVTESGCKECEELEEKNIKEFLQSFVHIVQMFINTGGGGSGHHHHHHHHGGGLNDIFEAQKIEWHE
B2: hIL-15 V49R/N4Y (ligand)
chain: B1 chain with N4Y, G30D
B3: hIL-15 V49R/H32F (ligand)
chain: B1 chain with G30D, H32F
B4: hIL-15 V49R/N65S (ligand)
chain: B1 chain with G30D, N65S
B5: hIL-15 V49R/N65A (ligand)
chain: B1 chain with G30D, N65A
B6: hIL-15 V49R/N4S (ligand)
chain: B1 chain with N4S, G30D
B7: xmPD-1-hIL15 V49R/E46G/E64Q/D30N/M109A (other)
heavy 1: HHHHHHHHGGGGSGSGGEVQLVESGGGLVKPGGSLELSCAASGFTFSSYWMSWVRQAPEKGLEWVAAISPSGGSTYYADSVKGRFTISRDNAKNTLFLQMTSLRSEDTAMYYCAKESWGAYYDLWGQGTTVTVSSASTKGPSVFPLAPCSRSTSESTAALGCLVKDYFPEPVTVSWNSGALTSGVHTFPAVLQSSGLYSLSSVVTVPSSNFGTQTYTCNVDHKPSNTKVDKTVERKCRVRCPRCPAPPVAGPSVFLFPPKPKDTLMISRTPEVTCVVVAVSHEDPEVQFNWYVDGVEVHNAKTKPREEQFNSTFRVVSVLTVVHQDWLNGKEYKCKVSNKGLPSSIEKTISKTKGQPREPQVYTLPPSREEMTKNQVSLTCLVKGFYPSDIAVEWESNGQPENNYKTTPPMLDSDGSFFLYSRLTVDKSRWQQGNVFSCSVMHEALHNHYTQKSLSLSPGK
heavy 2: EVQLVESGGGLVKPGGSLELSCAASGFTFSSYWMSWVRQAPEKGLEWVAAISPSGGSTYYADSVKGRFTISRDNAKNTLFLQMTSLRSEDTAMYYCAKESWGAYYDLWGQGTTVTVSSASTKGPSVFPLAPCSRSTSESTAALGCLVKDYFPEPVTVSWNSGALTSGVHTFPAVLQSSGLYSLSSVVTVPSSNFGTQTYTCNVDHKPSNTKVDKTVERKCEVECPECPAPPVAGPSVFLFPPKPKDTLMISRTPEVTCVVVAVSHEDPEVQFNWYVDGVEVHNAKTKPREEQFNSTFRVVSVLTVVHQDWLNGKEYKCKVSNKGLPSSIEKTISKTKGQPREPQVYTLPPSREEMTKNQVSLTCEVKGFYPSDIAVEWESNGQPENNYKTTPPMLDSDGSFFLYSKLTVDKSRWQQGNVFSCSVMHEALHNHYTQKSLSLSPGSGGGGGTSATATPGANWVNVISDLKKIEDLIQSMHIDATLYTESNVHPSCKVTAMKCFLLGLQRISLESGDASIHDTVQNLIILANNSLSSNGNVTESGCKECEELEEKNIKEFLQSFVHIVQAFINT
light: DIVMTQSPSSLSVSAGDKVTMSCRASQGISSWLAWYQQKPWQPPKLLIYKASTLESGVPDRFTGSGSGTDFTLTISSVQAEDLAVYYCQQSYSTPWTFGGGTKLEIKGTVAAPSVFIFPPSDEQLKSGTASVVCLLNNFYPREAKVQWKVDNALQSGNSQESVTEQDSKDSTYSLSSTLTLSKADYEKHKVYACEVTHQGLSSPVTKSFNRGEC
notes: not restated for this mutant
B8: xmPD-1-hIL15Rasu-hIL15(E64Q/D30N/I68S/M109A) (other)
heavy 1: B7 heavy 1
heavy 2: EVQLVESGGGLVKPGGSLELSCAASGFTFSSYWMSWVRQAPEKGLEWVAAISPSGGSTYYADSVKGRFTISRDNAKNTLFLQMTSLRSEDTAMYYCAKESWGAYYDLWGQGTTVTVSSASTKGPSVFPLAPCSRSTSESTAALGCLVKDYFPEPVTVSWNSGALTSGVHTFPAVLQSSGLYSLSSVVTVPSSNFGTQTYTCNVDHKPSNTKVDKTVERKCEVECPECPAPPVAGPSVFLFPPKPKDTLMISRTPEVTCVVVAVSHEDPEVQFNWYVDGVEVHNAKTKPREEQFNSTFRVVSVLTVVHQDWLNGKEYKCKVSNKGLPSSIEKTISKTKGQPREPQVYTLPPSREEMTKNQVSLTCEVKGFYPSDIAVEWESNGQPENNYKTTPPMLDSDGSFFLYSKLTVDKSRWQQGNVFSCSVMHEALHNHYTQKSLSLSPGSGGGGGTSATATPGAITCPPPMSVEHADIWVKSYSLYSRERYICNSGFKRKAGTSSLTECVLNKATNVAHWTTPSLKCIRDPALVHQRPAPPSGGSGGGGSGGGSGGGGSGGNWVNVISDLKKIEDLIQSMHIDATLYTESNVHPSCKVTAMKCFLLELQVISLESGDASIHDTVQNLISLANNSLSSNGNVTESGCKECEELEEKNIKEFLQSFVHIVQAFINT
light: B7 light
notes: not restated for this mutant
B9: xmPD-1-hIL15Rasu-hIL15(E64Q/D30N/N4K/M109A) (other)
heavy 1: B7 heavy 1
heavy 2: B8 heavy 2 with N559K, S623I
light: B7 light
notes: not restated for this mutant
B10: xmPD-1-hIL15Rasu-hIL15(E64Q/D30N/I68S) (other)
heavy 1: B7 heavy 1
heavy 2: B8 heavy 2 with A664M
light: B7 light
notes: not restated for this mutant
B11: xmPD-1-hIL15 V49R/E46G/N1G/N4Q/D30N (other)
heavy 1: EVQLVESGGGLVKPGGSLELSCAASGFTFSSYWMSWVRQAPEKGLEWVAAISPSGGSTYYADSVKGRFTISRDNAKNTLFLQMTSLRSEDTAMYYCAKESWGAYYDLWGQGTTVTVSSASTKGPSVFPLAPSSKSTSGGTAALGCLVKDYFPEPVTVSWNSGALTSGVHTFPAVLQSSGLYSLSSVVTVPSSSLGTQTYICNVNHKPSNTKVDKKVEPKSCDKTHTCPPCPAPEAAGAPSVFLFPPKPKDTLMISRTPEVTCVVVDVSHEDPEVKFNWYVDGVEVHNAKTKPREEQYNSTYRVVSVLTVLHQDWLNGKEYKCKVSNKALPAPIEKTISKAKGQPREPQVYTLPPCREEMTKNQVSLSCAVKGFYPSDIAVEWESNGQPENNYKTTPPVLDSDGSFFLVSKLTVDKSRWQQGNVFSCSVMHEALHNHYTQKSLSLSPGSGGGGSGGGGSGGGGGWVQVISDLKKIEDLIQSMHIDATLYTESNVHPSCKVTAMKCFLLGLQRISLESGDASIHDTVENLIILANNSLSSNGNVTESGCKECEELEEKNIKEFLQSFVHIVQMFINTS
heavy 2: EVQLVESGGGLVKPGGSLELSCAASGFTFSSYWMSWVRQAPEKGLEWVAAISPSGGSTYYADSVKGRFTISRDNAKNTLFLQMTSLRSEDTAMYYCAKESWGAYYDLWGQGTTVTVSSASTKGPSVFPLAPSSKSTSGGTAALGCLVKDYFPEPVTVSWNSGALTSGVHTFPAVLQSSGLYSLSSVVTVPSSSLGTQTYICNVNHKPSNTKVDKKVEPKSCDKTHTCPPCPAPEAAGAPSVFLFPPKPKDTLMISRTPEVTCVVVDVSHEDPEVKFNWYVDGVEVHNAKTKPREEQYNSTYRVVSVLTVLHQDWLNGKEYKCKVSNKALPAPIEKTISKAKGQPREPQVCTLPPSREEMTKNQVSLWCLVKGFYPSDIAVEWESNGQPENNYKTTPPVLDSDGSFFLYSKLTVDKSRWQQGNVFSCSVMHEALHNHYTQKSLSLSPGK
light: B7 light

Substitutions are numbered along the chain they refer to. Numbers in names are those of the source. Where only a bound is given, the exact number is not on record here.

In the first assay the target is T1, human IL-2Rβ. The assay is described as follows: SPR, kinetic fit. A general note: Surface plasmon resonance follows binding to a sensor surface in real time, without labels.
The molecule B1 came in with a Kd of 513 nM.

As to B2, the dissociation constant Kd came out at 117 nM. Compared with the last molecule, the Kd is about 4.4-fold lower.

The molecule B3 had a dissociation constant (Kd) of 315 nM.

A further assay addresses T1, human IL-2Rβ. The assay can be described thus: SPR 37C.
Turning to B4, the binding result is reported as “no binding”.

For B5, the binding result is recorded as “no binding”.

In the case of B6, the binding result is “no binding”.

In another assay the target is T2, human IL-15Rα (human, UniProt Q13261 31-205, limits assumed).
T2 construct: also called hIL-15Rα; IL-15 receptor alpha
T2 sequence (Q13261 31-205 limits assumed): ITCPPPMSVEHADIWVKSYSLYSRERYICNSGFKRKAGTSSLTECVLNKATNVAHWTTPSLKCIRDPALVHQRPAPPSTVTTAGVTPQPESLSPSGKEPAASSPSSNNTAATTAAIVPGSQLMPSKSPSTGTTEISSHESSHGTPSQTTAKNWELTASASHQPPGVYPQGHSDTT
The assay can be described thus: SPR 37C, fusion captured by anti-human Fc. Here is the method:
(§1) Anti-human Fc sensor chips were prepared at 25° C. with a running buffer of 10 mM HEPES, 150 mM NaCl, 0.05% (v/v) Tween-20, pH 7.4. All surfaces of a Biacore CM4 sensor chip were activated with a 1:1 (v/v) mixture of 400 mM EDC and 100 mM NHS for 7 minutes, at a flow rate of 10 μL/min. An anti-human Fc reagent (Goat anti-human IgG Fc-γ specific, SouthernBiotech, Birmingham, Ala., Catalog #2014-01) was diluted to 50 μg/mL in 10 mM sodium acetate (pH 4.5) and injected on all flow cells for 7 minutes at 20 μL/min. All flow cells were blocked with 100 mM ethylenediamine in 200 mM Borate buffer pH 8.5 for 7 minutes at 10 μL/min.
(§2) All protein interaction experiments were performed at 37° C. using a running buffer of 10 mM HEPES, 150 mM NaCl, 0.05% (v/v) Tween-20, pH 7.4, 1 mg/mL BSA. Anti-PD-1-hIL-15 fusion proteins were captured at 10 μg/mL at a flow rate of 10 μL/min for 2 minutes. Different fusion proteins were captured in flow cells 2, 3 and 4. No protein was captured onto flow cell 1 which was used as a reference surface. […] After each analyte injection, dissociation was monitored for 5 minutes followed by regeneration of all flow cells with three 60-second injections of 75 mM phosphoric acid. […] For kinetic analysis, the double-referenced sensorgrams were fit globally to a simple 1:1 Langmuir with mass transport binding model using Biacore T200 Evaluation Software version 2.0. For steady-state affinity analysis, the double-referenced equilibrium binding responses were fit with a 1:1 Langmuir steady-state model using Biacore T200 Evaluation Software version 2.0.
Take B7: the binding result is “no binding (tested: 3000 nM)”.

For B8, the binding result is reported as “no binding (tested: 3000 nM)”.

B9: the binding result is reported as “no binding (tested: 3000 nM)”.

As for B10, the binding result was “no binding (tested: 3000 nM)”.

Another assay concerns the target T2, human IL-15Rα. The assay is described as follows: SPR, steady state.
B4 gave a Kd of 158 nM.

In turn, B5 displayed a Kd of 202 nM.

Take B6: the Kd was found to be 94.7 nM.

Another assay has as its target T1, human IL-2Rβ. The assay can be described thus: SPR, fusion captured. Here is the method: as §1, §2
On to B7, for which the dissociation constant (Kd) is > 3000 nM.

As for B8, the equilibrium dissociation constant (Kd) is > 1500 nM.

Regarding B9, the Kd was > 3000 nM.

Consider B10, for which the Kd was > 3000 nM.

On to B11, for which the Kd was > 1500 nM.
